Biological target: T1, thrombin (Bos taurus, UniProt P00735)
T1 construct: purchased Sigma-Aldrich
Assay: LC-MS analysis of peptide cleavage by thrombin
Type: biochemical
Conditions: 12 h incubation with 1 U mL^-1 thrombin in Tris buffer pH 7.4
Experimental: LC-MS analysis of peptide cleavage. Peptide with sequence GGLVPR|GSGGC (SEQ ID NO:1) was incubated with thrombin (1 U/mL) in Tris buffer (20 mM Tris, 150 mM NaCl, 2.5 mM KCl, pH 7.4) for 12 h.

cleavage of the peptide by thrombin (LCMS): efficiently cleaved
Sequence: GGLVPRGSGGC [thrombin cleavable peptide, linker peptide cleaved by thrombin between Arg and Gly]
